T1: PDZD2_2, O15018
T1 sequence (O15018 329-429, limits assumed, looked up): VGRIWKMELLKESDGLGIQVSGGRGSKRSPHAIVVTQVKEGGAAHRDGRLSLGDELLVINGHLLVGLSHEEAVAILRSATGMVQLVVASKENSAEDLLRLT

T2: FRMPD1, Q5SYB0
T2 sequence (Q5SYB0 52-145, limits assumed, looked up): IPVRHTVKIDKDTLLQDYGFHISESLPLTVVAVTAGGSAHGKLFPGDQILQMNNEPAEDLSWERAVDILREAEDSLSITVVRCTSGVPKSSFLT

T3: NHERF3_4, Q5T2W1
T3 sequence (Q5T2W1 373-468, limits assumed, looked up): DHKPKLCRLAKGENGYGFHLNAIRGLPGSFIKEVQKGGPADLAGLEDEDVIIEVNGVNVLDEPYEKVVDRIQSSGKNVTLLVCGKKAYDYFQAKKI

T4: CARD11, Q9BXL7
T4 sequence (Q9BXL7 662-765, limits assumed, looked up): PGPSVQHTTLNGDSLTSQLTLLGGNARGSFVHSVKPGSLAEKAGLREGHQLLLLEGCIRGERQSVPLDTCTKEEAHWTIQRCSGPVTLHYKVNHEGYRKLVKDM

T5: GRIP1_2, Q9Y3R0
T5 sequence (Q9Y3R0 145-248, limits assumed, looked up): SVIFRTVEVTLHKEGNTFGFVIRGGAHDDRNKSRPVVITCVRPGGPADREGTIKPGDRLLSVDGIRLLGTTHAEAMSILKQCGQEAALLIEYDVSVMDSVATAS

T6: NHERF3_3, Q5T2W1
T6 sequence (Q5T2W1 238-333, limits assumed, looked up): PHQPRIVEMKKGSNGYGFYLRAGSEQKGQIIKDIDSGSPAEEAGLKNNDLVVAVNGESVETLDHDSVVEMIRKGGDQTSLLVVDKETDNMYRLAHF

T7: TJP3_3, O95049
T7 sequence (O95049 375-456, limits assumed, looked up): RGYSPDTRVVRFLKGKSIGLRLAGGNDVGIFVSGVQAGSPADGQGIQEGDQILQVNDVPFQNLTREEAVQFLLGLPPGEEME

T8: SNTG1, Q9NSN8
T8 sequence (Q9NSN8 52-150, limits assumed, looked up): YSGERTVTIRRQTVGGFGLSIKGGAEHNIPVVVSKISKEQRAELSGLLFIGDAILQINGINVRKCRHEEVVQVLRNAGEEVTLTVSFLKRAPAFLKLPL

T9: SNTA1, Q13424
T9 sequence (Q13424 82-180, limits assumed, looked up): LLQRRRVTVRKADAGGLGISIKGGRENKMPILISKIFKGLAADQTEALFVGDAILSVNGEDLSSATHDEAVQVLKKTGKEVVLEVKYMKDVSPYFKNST

T10: SIPA1L2, Q9P2F8
T10 sequence (Q9P2F8 945-1036, limits assumed, looked up): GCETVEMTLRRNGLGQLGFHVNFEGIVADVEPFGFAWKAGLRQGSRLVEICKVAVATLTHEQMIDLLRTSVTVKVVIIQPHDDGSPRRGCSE

T11: HTRA4, P83105
T11 sequence (P83105 378-476, limits assumed, looked up): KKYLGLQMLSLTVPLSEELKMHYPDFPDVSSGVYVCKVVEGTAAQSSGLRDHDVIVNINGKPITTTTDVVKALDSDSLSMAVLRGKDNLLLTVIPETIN


Key:
Test in all cases: holdup assay
Parameters in all cases: key: below the threshold = too weak to quantify, mostly under pKd 3.1 to 4
Conditions in all cases: plain residues with an end cap or a label only (N-terminal biotin on a linker: ado-ado)
PICK1, Q9NRD5 = target: PICK1, Q9NRD5
Sequence of PICK1, Q9NRD5 (Q9NRD5 17-115): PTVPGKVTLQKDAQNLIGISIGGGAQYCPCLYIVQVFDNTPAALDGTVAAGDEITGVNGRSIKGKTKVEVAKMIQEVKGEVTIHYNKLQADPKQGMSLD

GRIP2_4, Q9C0E4 = target: GRIP2_4, Q9C0E4
Sequence of GRIP2_4, Q9C0E4 (Q9C0E4 446-548): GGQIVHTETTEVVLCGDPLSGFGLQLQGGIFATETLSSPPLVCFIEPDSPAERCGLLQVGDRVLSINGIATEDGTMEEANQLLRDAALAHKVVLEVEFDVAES

MAGI2_4, Q86UL8 = target: MAGI2_4, Q86UL8
Sequence of MAGI2_4, Q86UL8 (Q86UL8 772-865): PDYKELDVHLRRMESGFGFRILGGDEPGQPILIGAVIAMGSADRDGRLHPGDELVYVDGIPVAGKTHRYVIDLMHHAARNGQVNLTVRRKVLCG

PDZD2_2, O15018 = target: T1, PDZD2_2, O15018
HTRA1, Q92743 = target: HTRA1, Q92743
Sequence of HTRA1, Q92743 (Q92743 360-477): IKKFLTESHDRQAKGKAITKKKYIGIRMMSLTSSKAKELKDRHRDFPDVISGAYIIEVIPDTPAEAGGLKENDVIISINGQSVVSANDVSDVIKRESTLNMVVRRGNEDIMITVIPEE

Inadl_5, Q8NI35 = target: Inadl_5, Q8NI35
Sequence of Inadl_5, Q8NI35 (Q8NI35 673-780): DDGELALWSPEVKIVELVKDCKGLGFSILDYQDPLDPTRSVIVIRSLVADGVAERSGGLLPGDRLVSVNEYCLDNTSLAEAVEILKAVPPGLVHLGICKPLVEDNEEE

MAGI2_3, Q86UL8 = target: MAGI2_3, Q86UL8
Sequence of MAGI2_3, Q86UL8 (Q86UL8 600-682): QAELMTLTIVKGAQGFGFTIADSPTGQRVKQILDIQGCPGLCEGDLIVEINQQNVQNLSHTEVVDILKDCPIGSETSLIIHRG

FRMPD1, Q5SYB0 = target: T2, FRMPD1, Q5SYB0
NHERF3_4, Q5T2W1 = target: T3, NHERF3_4, Q5T2W1
DLG1_3, Q12959 = target: DLG1_3, Q12959
Sequence of DLG1_3, Q12959 (Q12959 457-571): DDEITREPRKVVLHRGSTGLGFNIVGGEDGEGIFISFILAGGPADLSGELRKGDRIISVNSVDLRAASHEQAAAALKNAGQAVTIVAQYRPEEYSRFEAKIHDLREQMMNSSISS

CARD11, Q9BXL7 = target: T4, CARD11, Q9BXL7
GRIP1_2, Q9Y3R0 = target: T5, GRIP1_2, Q9Y3R0
NHERF3_3, Q5T2W1 = target: T6, NHERF3_3, Q5T2W1
SCRIB_2, Q14160 = target: SCRIB_2, Q14160
Sequence of SCRIB_2, Q14160 (Q14160 857-960): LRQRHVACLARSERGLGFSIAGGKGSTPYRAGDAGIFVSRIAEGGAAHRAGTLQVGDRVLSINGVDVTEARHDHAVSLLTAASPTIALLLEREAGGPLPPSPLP

Inadl_6, Q8NI35 = target: Inadl_6, Q8NI35
Sequence of Inadl_6, Q8NI35 (Q8NI35 1058-1167): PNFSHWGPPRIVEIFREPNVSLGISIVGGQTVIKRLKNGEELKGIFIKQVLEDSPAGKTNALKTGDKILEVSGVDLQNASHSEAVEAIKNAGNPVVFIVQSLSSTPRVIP

LNX1_3, Q8TBB1 = target: LNX1_3, Q8TBB1
Sequence of LNX1_3, Q8TBB1 (Q8TBB1 500-596): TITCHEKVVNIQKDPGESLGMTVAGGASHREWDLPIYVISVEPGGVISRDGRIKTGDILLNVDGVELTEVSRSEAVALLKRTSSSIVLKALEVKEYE

PTPN3, P26045 = target: PTPN3, P26045
Sequence of PTPN3, P26045 (P26045 505-587): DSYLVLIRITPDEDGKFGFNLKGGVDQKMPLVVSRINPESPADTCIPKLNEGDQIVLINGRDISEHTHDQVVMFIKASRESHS

TJP3_3, O95049 = target: T7, TJP3_3, O95049
SNTG1, Q9NSN8 = target: T8, SNTG1, Q9NSN8
MAGI2_5, Q86UL8 = target: MAGI2_5, Q86UL8
Sequence of MAGI2_5, Q86UL8 (Q86UL8 915-1017): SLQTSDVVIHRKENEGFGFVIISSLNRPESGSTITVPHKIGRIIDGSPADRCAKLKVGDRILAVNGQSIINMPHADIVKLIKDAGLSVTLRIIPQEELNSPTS

NHERF4_2, Q86UT5 = target: NHERF4_2, Q86UT5
Sequence of NHERF4_2, Q86UT5 (Q86UT5 220-308): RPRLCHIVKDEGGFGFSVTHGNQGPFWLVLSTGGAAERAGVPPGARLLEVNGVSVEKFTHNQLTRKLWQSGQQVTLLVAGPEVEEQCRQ

SNTA1, Q13424 = target: T9, SNTA1, Q13424
SIPA1L2, Q9P2F8 = target: T10, SIPA1L2, Q9P2F8
GIPC2, Q8TF65 = target: GIPC2, Q8TF65
Sequence of GIPC2, Q8TF65 (Q8TF65 112-203): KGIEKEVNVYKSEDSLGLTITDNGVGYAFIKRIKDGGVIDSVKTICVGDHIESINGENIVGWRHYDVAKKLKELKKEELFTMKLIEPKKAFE

LDB3, O75112 = target: LDB3, O75112
Sequence of LDB3, O75112 (O75112 1-94): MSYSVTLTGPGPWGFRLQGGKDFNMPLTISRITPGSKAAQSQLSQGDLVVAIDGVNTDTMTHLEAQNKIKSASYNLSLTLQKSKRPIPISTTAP

ARHGEF12, Q9NZN5-2 = target: ARHGEF12, Q9NZN5-2
Sequence of ARHGEF12, Q9NZN5-2 (Q9NZN5 other isoform, or with tags, fused parts or gaps): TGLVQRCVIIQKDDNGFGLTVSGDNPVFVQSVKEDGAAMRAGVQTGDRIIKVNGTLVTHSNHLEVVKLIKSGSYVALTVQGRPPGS

HTRA4, P83105 = target: T11, HTRA4, P83105

Row | Binder | pKd (PICK1, Q9NRD5) | pKd (GRIP2_4, Q9C0E4) | pKd (MAGI2_4, Q86UL8) | pKd (PDZD2_2, O15018) | pKd (HTRA1, Q92743) | pKd (Inadl_5, Q8NI35) | pKd (MAGI2_3, Q86UL8) | pKd (FRMPD1, Q5SYB0) | pKd (NHERF3_4, Q5T2W1) | pKd (DLG1_3, Q12959) | pKd (CARD11, Q9BXL7) | pKd (GRIP1_2, Q9Y3R0) | pKd (NHERF3_3, Q5T2W1) | pKd (SCRIB_2, Q14160) | pKd (Inadl_6, Q8NI35) | pKd (LNX1_3, Q8TBB1) | pKd (PTPN3, P26045) | pKd (TJP3_3, O95049) | pKd (SNTG1, Q9NSN8) | pKd (MAGI2_5, Q86UL8) | also measured
1 | LKVPPEERLI [CRB2, Q5IJ48] | below the threshold | below the threshold | below the threshold | below the threshold | 4.18 | below the threshold | below the threshold | below the threshold | below the threshold | below the threshold | below the threshold | below the threshold | below the threshold | below the threshold | below the threshold | below the threshold | below the threshold | below the threshold | below the threshold | below the threshold | pKd (NHERF4_2, Q86UT5): below the threshold; pKd (SNTA1, Q13424): below the threshold; pKd (SIPA1L2, Q9P2F8): below the threshold; pKd (GIPC2, Q8TF65): below the threshold; pKd (LDB3, O75112): below the threshold; pKd (ARHGEF12, Q9NZN5-2): below the threshold; pKd (HTRA4, P83105): below the threshold
2 | YRLAQESGLV [ABCC6, O95255] | 4.19 | below the threshold | 3.89 | 3.51 | 3.98 | below the threshold | below the threshold | below the threshold | below the threshold | below the threshold | below the threshold | below the threshold | below the threshold | below the threshold | below the threshold | below the threshold | 3.87 | below the threshold | below the threshold | 3.61 | pKd (NHERF4_2, Q86UT5): below the threshold; pKd (SNTA1, Q13424): below the threshold; pKd (SIPA1L2, Q9P2F8): below the threshold; pKd (GIPC2, Q8TF65): below the threshold; pKd (LDB3, O75112): below the threshold; pKd (ARHGEF12, Q9NZN5-2): below the threshold; pKd (HTRA4, P83105): 3.79
3 | SGSLKLMTTV [DACT1, Q9NYF0] | 4.09 | below the threshold | 4.92 | 3.92 | 4.04 | below the threshold | below the threshold | below the threshold | below the threshold | 3.55 | below the threshold | below the threshold | below the threshold | 3.69 | below the threshold | below the threshold | 3.8 | below the threshold | below the threshold | 4.51 | pKd (NHERF4_2, Q86UT5): below the threshold; pKd (SNTA1, Q13424): 3.49; pKd (SIPA1L2, Q9P2F8): below the threshold; pKd (GIPC2, Q8TF65): below the threshold; pKd (LDB3, O75112): below the threshold; pKd (ARHGEF12, Q9NZN5-2): 4.62; pKd (HTRA4, P83105): 4.26
4 | ETQVTAETVI [TMEM225B, P0DP42] | 3.97 | below the threshold | below the threshold | 3.92 | 4.31 | below the threshold | below the threshold | below the threshold | below the threshold | below the threshold | below the threshold | below the threshold | below the threshold | below the threshold | below the threshold | below the threshold | 4.59 | below the threshold | 3.9 | below the threshold | pKd (NHERF4_2, Q86UT5): below the threshold; pKd (SNTA1, Q13424): 4.68; pKd (SIPA1L2, Q9P2F8): below the threshold; pKd (GIPC2, Q8TF65): below the threshold; pKd (LDB3, O75112): below the threshold; pKd (ARHGEF12, Q9NZN5-2): 3.84; pKd (HTRA4, P83105): below the threshold
5 | SNAGNTATKA [NOSTRIN, Q8IVI9] | below the threshold | below the threshold | below the threshold | below the threshold | below the threshold | below the threshold | below the threshold | below the threshold | below the threshold | below the threshold | below the threshold | below the threshold | below the threshold | below the threshold | below the threshold | below the threshold | 3.87 | below the threshold | below the threshold | below the threshold | pKd (NHERF4_2, Q86UT5): below the threshold; pKd (SNTA1, Q13424): below the threshold; pKd (SIPA1L2, Q9P2F8): below the threshold; pKd (GIPC2, Q8TF65): below the threshold; pKd (LDB3, O75112): below the threshold; pKd (ARHGEF12, Q9NZN5-2): below the threshold; pKd (HTRA4, P83105): below the threshold
